Patent US9708382B2, “Peptide library” (Daiichi Sankyo Company, Limited, priority 2011, dated 2017)

Tests used:
[1] = target: T1, Recombinant Mouse EphA2/Fc Chimera (mEphA2/Fc) (Mus musculus, UniProt Q03145); assay: Phage ELISA on solid-phase immobilized mEphA2/Fc; type: binding; details: phage-displayed peptide, compared with wild-type TACI_d2
T1 construct: purchased R&D systems, Inc
Description: (§1) As to 3 clones (α-EphA2 #1 to #3: corresponding to SEQ ID NOs: 3 to 5, respectively, in the Sequence Listing and to Nos. 2 to 4, respectively in FIG. 4) selected from the Escherichia coli colonies after the final round of panning with hEphA2 as a target molecule, an Escherichia coli suspension with OD600 nm=0.3 was prepared using 2×YT/Amp/1% Glu. The Escherichia coli cells of each clone were shake-cultured at 37° C. and allowed to grow until OD600 nm=0.5. A sufficient amount of helper phages M13K07 was added thereto to infect the cells at 37° C. for 30 minutes. After addition of 2×YT/Amp/Kan/0.25 mM IPTG, the helper phage-infected Escherichia coli was shake-cultured overnight at 22° C. 20% PEG/2.5 M NaCl solution was added to the recovered culture supernatant to precipitate phages. The precipitated phages were suspended in PBS. This phage stock solution and a series of two-fold dilutions with PBS were used in phage ELISA. An Escherichia coli TG-1 strain having a pCANTAB 5E vector containing the wild-type TACI_d2 gene was also subjected to the same operation as above to prepare phages.
Each of hEphA2, BSA, Recombinant Human BAFF/BLyS/TNFSF13B (R&D systems, Inc.; a polypeptide consisting of amino acids from Ala at position 134 to Leu at position 285 in human BAFF (UniProtKB/Swiss-Prot Accession # Q9Y275) and containing an N-terminally linked histidine tag, etc.; hereinafter referred to as “hBAFF”), and Recombinant Mouse EphA2/Fc Chimera, CF (R&D systems, Inc.; a polypeptide consisting of amino acids from Ala at position 22 to Ala at position 535 in mouse EphA2 (NCBI Accession No. #AAA82113) and containing a C-terminally linked Fc region (from Pro at position 100 to Lys at position 330) of human immunoglobulin G1 (hereinafter, referred to as “hIgG1”); hereinafter, referred to as “mEphA2/Fc”) was added to a Maxisorp plate and solid-phase immobilized overnight at 4° C. […] After washing of the Maxisorp plate with TBST again, the amount of a phage bound with the protein solid-phase immobilized on the plate was detected as absorbance at a wavelength of 405 nm using ELISA POD.

[2] = target: T2, human EphA2 expressed on cell surface (Homo sapiens, UniProt P29317); assay: Flow cytometry binding to human EphA2-expressing HEK293T cells; type: cell-based; details: phage-displayed peptide, HEK293T cells transfected with human EphA2, human ErbB2-expressing cells as negative control
T2 construct: expressed in transfected cells; host or cells: HEK293T
Description: Human embryonic kidney cells (HEK293T cells) were cultured at 37° C. in the presence of 5% CO2 using a Dulbecco's modified eagle's medium (hereinafter, referred to as “DMEM”; manufactured by GIBCO, Life Technologies Corp.) containing 10% fetal bovine serum (FBS) (hereinafter, this medium is referred to as “DMEM-10% FBS”). For use in transfection or flow cytometry, the cells were dissociated from the plate for culture using 0.05% trypsin-EDTA (GIBCO), and the cell suspension was then centrifuged to recover cells, which were then resuspended in DMEM-10% FBS and used.
The HEK293T cells were transfected with a pcDNA-DEST40 Gateway vector (manufactured by Invitrogen Corp.) having an insert of the human EphA2 gene or the human ErbB2 gene as a negative control using Lipofectamine 2000 (manufactured by Invitrogen Corp.) according to the instructions.
The transfected cells were recovered. The recovered cells were suspended in a FACS buffer (PBS containing 5% FBS) and applied to a nylon mesh. The solution was dispensed in an amount of 5×10^5 cells/well to 96 Well Cell Culture Cluster Round Bottom With Lid (manufactured by Costar, Corning Inc.) and centrifuged to remove a supernatant. The phage stock solution prepared in the paragraph 1) of Example 4 was added to the resulting cells at a concentration of 50 μL/well, and the mixture was left standing at 4° C. for 30 minutes. A FACS buffer was added thereto at a concentration of 150 μL/well, and the mixture was centrifuged to remove a supernatant. Again, a FACS buffer was added thereto at a concentration of 200 μL/well, and the mixture was centrifuged to remove a supernatant (hereinafter, cells were washed in the same way as this operation). An Anti-M13 antibody diluted 100-fold was added to the obtained cells at a concentration of 50 μL/well as a primary antibody, and the mixture was left standing at 4° C. for 30 minutes, followed by washing of the cells. Subsequently, FLUORESCEIN-CONJUGATED GOAT IGG FRACTION TO MOUSE IGG (manufactured by Cappel, MP Biomedicals, LLC) diluted 1000-fold was added thereto as a secondary antibody, and the mixture was left standing at 4° C. for 30 minutes, followed by washing of the cells. The obtained cells were suspended in 250 μL of a FACS buffer and subjected to Cytomics FC 500 Flow Cytometry System (manufactured by Beckman Coulter, Inc.). Fluorescently stained cells were detected.

BAFF = BAFF (Homo sapiens, UniProt Q9Y275); details: compared with whole extracellular region (TACI_d1d2); cited from earlier work
APRIL = target: T3, APRIL (Homo sapiens, UniProt O75888); details: compared with whole extracellular region (TACI_d1d2); cited from earlier work
T3 sequence (O75888 105-250): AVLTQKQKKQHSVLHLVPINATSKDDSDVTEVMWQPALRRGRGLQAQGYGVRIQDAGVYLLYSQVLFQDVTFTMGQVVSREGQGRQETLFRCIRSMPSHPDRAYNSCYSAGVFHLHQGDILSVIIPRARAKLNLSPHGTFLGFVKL

[3] = target: T4, Recombinant Human BAFF/BLyS/TNFSF13B (hBAFF) (Homo sapiens, UniProt Q9Y275); assay: Phage ELISA on solid-phase immobilized hBAFF; type: binding; details: phage-displayed peptide, absorbance at 405 nm
T4 construct: amino acids from Ala at position 134 to Leu at position 285 in human BAFF; histidine tag (N); purchased R&D systems, Inc
Description: as §1, with “prepare phages. […]” for “prepare phages.”

T2 sequence (P29317 24-976): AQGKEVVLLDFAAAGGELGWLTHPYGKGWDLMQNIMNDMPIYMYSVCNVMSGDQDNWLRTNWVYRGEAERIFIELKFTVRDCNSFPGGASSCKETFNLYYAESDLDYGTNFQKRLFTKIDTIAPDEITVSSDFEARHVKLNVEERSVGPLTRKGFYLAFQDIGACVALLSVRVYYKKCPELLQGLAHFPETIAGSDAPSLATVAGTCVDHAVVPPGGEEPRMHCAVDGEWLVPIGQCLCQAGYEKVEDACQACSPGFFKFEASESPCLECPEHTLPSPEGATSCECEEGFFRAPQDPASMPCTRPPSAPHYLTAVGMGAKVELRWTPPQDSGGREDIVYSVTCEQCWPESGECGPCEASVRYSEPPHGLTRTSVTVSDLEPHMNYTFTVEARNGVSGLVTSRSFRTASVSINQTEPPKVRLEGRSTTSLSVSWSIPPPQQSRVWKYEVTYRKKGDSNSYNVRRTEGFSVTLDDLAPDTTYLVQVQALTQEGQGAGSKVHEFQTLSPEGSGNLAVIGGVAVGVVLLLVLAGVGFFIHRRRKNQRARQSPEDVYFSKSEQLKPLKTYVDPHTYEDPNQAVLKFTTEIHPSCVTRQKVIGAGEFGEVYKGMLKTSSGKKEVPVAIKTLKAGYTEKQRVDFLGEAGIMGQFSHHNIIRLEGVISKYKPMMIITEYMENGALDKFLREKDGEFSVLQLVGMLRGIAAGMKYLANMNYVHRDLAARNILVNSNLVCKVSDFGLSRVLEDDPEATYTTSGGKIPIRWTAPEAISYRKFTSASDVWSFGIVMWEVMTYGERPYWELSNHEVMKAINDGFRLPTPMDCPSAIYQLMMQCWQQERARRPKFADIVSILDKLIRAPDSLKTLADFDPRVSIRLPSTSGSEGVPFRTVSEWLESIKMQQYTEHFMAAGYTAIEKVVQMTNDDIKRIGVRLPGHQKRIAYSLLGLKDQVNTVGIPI
T1 sequence (Q03145 22-535, change not shown): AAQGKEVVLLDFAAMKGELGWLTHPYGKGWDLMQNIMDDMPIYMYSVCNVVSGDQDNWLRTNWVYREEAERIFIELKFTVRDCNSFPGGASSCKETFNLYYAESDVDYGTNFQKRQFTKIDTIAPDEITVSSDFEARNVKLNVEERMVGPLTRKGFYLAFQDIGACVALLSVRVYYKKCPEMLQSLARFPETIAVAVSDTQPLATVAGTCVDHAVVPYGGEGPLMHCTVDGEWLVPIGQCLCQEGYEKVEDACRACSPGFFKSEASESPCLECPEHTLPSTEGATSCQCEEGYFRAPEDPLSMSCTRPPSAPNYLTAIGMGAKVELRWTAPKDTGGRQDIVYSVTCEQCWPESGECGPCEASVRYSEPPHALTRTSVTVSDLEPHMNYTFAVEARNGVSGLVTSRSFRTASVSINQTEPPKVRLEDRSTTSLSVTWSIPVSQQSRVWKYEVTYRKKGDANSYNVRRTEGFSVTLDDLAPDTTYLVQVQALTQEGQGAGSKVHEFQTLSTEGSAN
T4 sequence (Q9Y275 134-285): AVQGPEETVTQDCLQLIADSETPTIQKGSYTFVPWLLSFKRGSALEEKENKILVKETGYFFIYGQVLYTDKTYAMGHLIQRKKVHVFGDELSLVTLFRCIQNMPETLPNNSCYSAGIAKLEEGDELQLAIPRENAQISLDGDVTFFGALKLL
BAFF, sequence (Q9Y275 134-285 limits assumed, species assumed): as the sequence (Q9Y275 134-285) above

Substance | cross reactivity to mEphA2 [1] | binding to human EphA2 expressed on cell surface [2] | binding to human EphA2 expressed on cell surface ([2]; listed as α-EphA2 TACI_d2 #1) | binding to human EphA2 expressed on cell surface ([2]; listed as α-EphA2 TACI_d2 #2) | binding activity against BAFF (BAFF) | binding activity against APRIL (APRIL) | binding to the endogenous ligand hBAFF [3]
SLSCRKEQGKQYLLREWDCDSCASECGSHPHYCAYFCEN (Amino acid sequence of human EphA2-binding peptide a-EphA2 #1) [α-EphA2 #1] | stronger cross reactivity | bound | specifically bound | – | – | – | –
SLSCRKEQGKMYLLKEWDCASCASACGNHPHYCAYFCEN (Amino acid sequence of human EphA2-binding peptide a-EphA2 #2) [α-EphA2 #2] | cross reactivity to mEphA2 at a level equivalent to wild-type TACI_d2 | bound | – | specifically bound | – | – | –
wild-type TACI_d2: wild-type C-terminal cysteine-rich domain of TACI, binds APRIL and BAFF | – | – | – | – | equivalent to the binding activity of the whole extracellular region (TACI_d1d2) | equivalent to the binding activity of the whole extracellular region (TACI_d1d2) | bind to the endogenous ligand hBAFF
SLSCRKEQGKHYLLKEYDCDSCASECGYHPDYCAYFCEN (Amino acid sequence of human EphA2-binding peptide a-EphA2 #3) [α-EphA2 #3] | cross reactivity to mEphA2 at a level equivalent to wild-type TACI_d2 | – | – | – | – | – | –
